Several values for one entry are separate records, joined by “and”; a condition that tells them apart may be missing. Equal values may be shown once.
What was measured:
Δ34 Pox = target: T1, Δ34 Pox (Lactobacillus delbrueckii, UniProt Q1G7Z6); assay: fold activity relative to no phospholipid, same coupled assay; format: biochemical; details: activator; 50 mM pyruvate, 50 mM phosphate, 15 μM FAD, 300 μM TPP, pH 5.6, 25 °C; lipid suspension
T1 construct: gene pox1; C-terminal truncation lacking the last 34 residues, C-terminal His6, vector pFLAG-CTC, expressed in E. coli LOBSTR
T1 sequence (Q1G7Z6 1-582): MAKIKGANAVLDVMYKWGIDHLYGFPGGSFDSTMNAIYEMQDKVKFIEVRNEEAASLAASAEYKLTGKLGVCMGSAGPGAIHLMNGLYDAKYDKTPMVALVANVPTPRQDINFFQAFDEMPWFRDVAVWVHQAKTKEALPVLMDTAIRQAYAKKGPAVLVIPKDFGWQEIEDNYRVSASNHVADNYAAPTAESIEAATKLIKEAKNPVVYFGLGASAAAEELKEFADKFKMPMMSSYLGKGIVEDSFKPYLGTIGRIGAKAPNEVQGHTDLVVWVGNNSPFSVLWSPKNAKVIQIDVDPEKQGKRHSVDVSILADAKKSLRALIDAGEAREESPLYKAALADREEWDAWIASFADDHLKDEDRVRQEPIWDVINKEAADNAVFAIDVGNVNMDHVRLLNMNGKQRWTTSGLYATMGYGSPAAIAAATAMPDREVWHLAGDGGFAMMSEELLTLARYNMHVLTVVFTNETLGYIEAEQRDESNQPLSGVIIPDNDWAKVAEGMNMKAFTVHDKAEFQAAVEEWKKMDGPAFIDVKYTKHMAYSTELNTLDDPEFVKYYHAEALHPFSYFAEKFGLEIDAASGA

[1] = target: Pyruvate oxidase (Pox) from Lactobacillus delbrueckii strain STYM1 (Lactobacillus delbrueckii STYM1); assay: non-reducing SDS-PAGE; Coomassie stain of gel filtration fractions and of purified Pox after SDS-PAGE under non-reducing conditions; disulfide-linked dimer
[2] = target: Pyruvate oxidase (Pox) from Lactobacillus delbrueckii strain STYM1 (Lactobacillus delbrueckii STYM1); assay: SEC; Superdex 200, 20 mM Bis-Tris pH 6, 150 mM NaCl, 0.5 mL/min; 840 ug purified Pox pre-incubated with 50 mM pyruvate, 300 uM TPP, 15 uM FAD for 10 min at room temperature; molecular weight from a standard curve of protein standards

Row | Molecule | fold activity (Δ34 Pox) | stoichiometry N [1] | stoichiometry N [2]
1 | CCCCCCCC/C=C\CCCCCCCC(=O)O[C@H](COC(=O)CCCCCCCCCCCCCCC)COP(=O)(O)OCCN [phosphotidylethanolamine (16:0–18:1)] | ~ 2 fold | – | –
2 | Pyruvate oxidase (Pox) from Lactobacillus delbrueckii strain STYM1 (enzyme) | – | 2 | 10 and 5
